Measurements as given in article PMC7534798.

Assays:
SPRTN-EQ = target: T1, SPRTN-EQ (human, UniProt Q9H040 1-489, E112Q); experiment: EMSA
T1 sequence: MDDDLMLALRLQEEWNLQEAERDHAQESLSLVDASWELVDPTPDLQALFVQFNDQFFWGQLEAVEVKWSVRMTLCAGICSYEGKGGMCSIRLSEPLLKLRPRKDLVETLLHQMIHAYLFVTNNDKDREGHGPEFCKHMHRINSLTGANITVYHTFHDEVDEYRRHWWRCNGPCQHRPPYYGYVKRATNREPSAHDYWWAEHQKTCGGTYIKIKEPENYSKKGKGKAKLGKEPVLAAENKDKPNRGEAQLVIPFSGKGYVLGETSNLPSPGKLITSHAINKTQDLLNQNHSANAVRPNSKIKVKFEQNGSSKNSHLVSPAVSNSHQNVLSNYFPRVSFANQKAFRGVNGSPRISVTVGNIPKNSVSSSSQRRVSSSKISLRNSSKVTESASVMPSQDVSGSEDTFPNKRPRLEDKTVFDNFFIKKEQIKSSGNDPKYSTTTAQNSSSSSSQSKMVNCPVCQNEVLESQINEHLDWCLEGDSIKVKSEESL

SPRTN ZBD-BR = target: T2, SPRTN ZBD-BR (human, UniProt Q9H040 151-245); experiment: NMR
T2 sequence: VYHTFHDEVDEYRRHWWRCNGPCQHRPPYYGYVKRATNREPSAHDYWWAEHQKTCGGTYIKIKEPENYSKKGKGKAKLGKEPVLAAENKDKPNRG

SPRTN ZBD = target: T3, SPRTN ZBD (human, UniProt Q9H040 151-215); experiment: NMR
T3 sequence: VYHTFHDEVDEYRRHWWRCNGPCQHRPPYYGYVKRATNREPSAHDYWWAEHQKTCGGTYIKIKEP

B1: internal DPC dsDNA (X15) (dsDNA)
DNA 1: ACCAGTGCCTTGCTTGGACATCTTTGCCCA
DNA 2: TGGGCAAAGATGTCCAAGCAAGGCACTGGT
modifications: T15 is SH-C9-dT crosslinked to protein G; 3' phosphate on strand 1
B1: binds (SPRTN-EQ).

B2: ss/dsDNA junction DPC (C3A11XA12C3 + 15-mer) (mixed)
DNA 1: CCCAAAAAAAAAAATAAAAAAAAAAAACCC
DNA 2: GGGTTTTTTTTTTTT
modifications: T15 is SH-C9-dT crosslinked to protein G; 3' phosphate on strand 1
B2: binds (SPRTN-EQ).

B3: dsDNA DPC (C3A11XA12C3 + 30-mer) (dsDNA)
DNA 1: B2 DNA 1
DNA 2: GGGTTTTTTTTTTTTATTTTTTTTTTTGGG
modifications: T15 is SH-C9-dT crosslinked to protein G; 3' phosphate on strand 1
B3: binds (SPRTN-EQ).

AAAAAAAAAAAAAAA (ssDNA) [poly(dA) 15-mer]: binds (SPRTN ZBD-BR); binds (SPRTN ZBD).

TCCAGTGCCTTGCTAGGACATCTTTGCCCA (ssDNA, T1 is SH-C9-dT crosslinked to protein G; 3' phosphate) [5' DPC ss (X1)]: binds (SPRTN-EQ).

ACCAGTGCCTTGCTTGGACATCTTTGCCCA (ssDNA, T15 is SH-C9-dT crosslinked to protein G; 3' phosphate) [internal DPC ss (X15)]: binds (SPRTN-EQ).

ACCAGTGCCTTGCTAGGACATCTTTGCCCT (ssDNA, T30 is SH-C9-dT crosslinked to protein G; 3' phosphate) [3' DPC ss (X30)]: binds (SPRTN-EQ).

GATGTCCTAGCAAGG (structured_DNA) [15-mer hairpin (oJS_106)]: binds (SPRTN-EQ).
